Assay results taken from patent US20150337308, “MATRIX METALLOPROTEINASE 9 (MMP-9) APTAMER AND USES THEREOF” (CHU DE BORDEAUX, published 2015).

Experiments:
hMMP-9 (gelatinase B) [1] = target: T1, hMMP-9 (gelatinase B) (Homo sapiens, UniProt P14780 P14780:107-707); assay: filter; SP buffer (5 mM CaCl2, 1 mM Mg acetate), 23 C; settings: tags: Calbiochem; label: 32P 5' end; imperfect hairpin
Protocol: The dissociation constant (Kd) of the complexes, formed by the aptamers and the hMMP-9 protein, was determined using the filter retention method. 1 nM of ³²P 5′end-labeled aptamer was incubated with increasing concentrations of hMMP-9 (10, 20, 40, 72, 160, 320, 500 nM) for 20 min at 23° C. in 20 μl SP buffer. Complexes were filtered and the radioactivity retained on the filter was quantified using a scintillation counter (LS 6000 IC, Beckman). Kd values were deduced from data point fitting with Kaleidagraph 3.0 (Abelbeck software), according to the equation: B=(Bmax[L]₀)/([…]), where B is the proportion of complex, Bmax is the maximum of complex formed and [L]₀ is the total concentration of unlabeled ligand.

hMMP-7 [2] = target: T2, hMMP-7 (Homo sapiens, UniProt P09237 P09237:95-267); assay: filter; no retention; settings: label: 32P 5' end; imperfect hairpin
T2 sequence: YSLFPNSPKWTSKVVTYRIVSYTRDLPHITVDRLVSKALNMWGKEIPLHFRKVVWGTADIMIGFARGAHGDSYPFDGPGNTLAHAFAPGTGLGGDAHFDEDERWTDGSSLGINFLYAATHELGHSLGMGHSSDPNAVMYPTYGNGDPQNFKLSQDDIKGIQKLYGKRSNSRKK

pro-hMMP-7 = target: T3, pro-hMMP-7 (Homo sapiens, UniProt P09237 P09237:18-267); assay: filter; no retention; settings: label: 32P 5' end; imperfect hairpin
T3 sequence: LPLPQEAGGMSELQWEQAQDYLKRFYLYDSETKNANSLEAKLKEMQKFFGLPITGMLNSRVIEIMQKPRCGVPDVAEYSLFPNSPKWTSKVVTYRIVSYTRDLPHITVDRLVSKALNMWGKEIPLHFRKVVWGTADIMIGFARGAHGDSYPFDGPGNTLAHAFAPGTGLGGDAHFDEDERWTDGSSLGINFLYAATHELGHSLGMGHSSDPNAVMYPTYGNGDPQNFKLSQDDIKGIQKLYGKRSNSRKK

hMMP-7 [3] = target: T2, hMMP-7; assay: SPR; 50 nM protein, PBS; settings: label: 3' biotin; hairpin
Protocol: (§1) Surface Plasmon Resonance (SPR) experiments were performed on a BIAcore™ 3000 apparatus (Biacore AB, Sweden). 2 μg of hMMP-9 protein were injected on a carboxymethylated dextran CM5 sensorchip for immobilisation and aptamers F3B, F3C1 and F3C2 were injected at 200 nM (20 μl/min) in SP buffer. Alternatively CM5 sensorchips were functionalized with streptavidin. 3′ end biotinylated F3B and F3Bomf were immobilised on the functionalized CM5 and hMMP-9 protein at 100 nM in SP buffer was injected. hMMP-9 was injected at different concentrations (from 5 to 160 nM) in PBS buffer. In another series of experiments 3′end biotinylated aptamer F3Bomf was immobilized and hMMP-9, pro-hMMP-9, mouse pro-MMP-9, human MMP-2 or MMP-7 proteins were injected at 50 nM in PBS buffer. SPR experiments were performed at 23° C., at 20 μl/min, and the complexes were dissociated with a pulse of a solution containing 40% formamide/3.6 M urea/30 mM EDTA (42).

hMMP-2 (gelatinase A) = hMMP-2 (gelatinase A) (Homo sapiens, UniProt P08253 P08253:110-660); assay: SPR; 50 nM protein, PBS; settings: label: 3' biotin; hairpin
Chain of hMMP-2 (gelatinase A) (P08253 110-660, one chain of several): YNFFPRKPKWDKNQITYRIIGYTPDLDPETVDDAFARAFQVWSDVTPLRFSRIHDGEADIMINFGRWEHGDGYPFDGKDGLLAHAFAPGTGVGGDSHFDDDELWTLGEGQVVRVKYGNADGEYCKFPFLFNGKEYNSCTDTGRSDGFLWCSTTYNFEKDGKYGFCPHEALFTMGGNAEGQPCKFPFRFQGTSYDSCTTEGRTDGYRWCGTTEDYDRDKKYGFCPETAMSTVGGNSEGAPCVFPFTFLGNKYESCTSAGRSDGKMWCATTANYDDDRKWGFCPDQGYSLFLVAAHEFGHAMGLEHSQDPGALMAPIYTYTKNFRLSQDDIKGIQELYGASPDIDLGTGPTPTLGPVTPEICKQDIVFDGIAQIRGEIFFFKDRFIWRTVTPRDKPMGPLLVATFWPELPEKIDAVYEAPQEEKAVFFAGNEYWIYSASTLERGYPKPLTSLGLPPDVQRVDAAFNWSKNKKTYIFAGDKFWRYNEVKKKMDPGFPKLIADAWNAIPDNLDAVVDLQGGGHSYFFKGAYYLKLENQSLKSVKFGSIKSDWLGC
Protocol: as §1

hMMP-9 (gelatinase B) [4] = target: T1, hMMP-9 (gelatinase B); assay: SPR; no detectable signal; settings: tags: Calbiochem
Protocol: as §1
Next we optimized the F3B chemistry in the perspective of its use in biological media. […] However the equilibrium constant was evaluated to be in the low nanomolar range. […] In contrast, F3Bomf was able to discriminate between the human and the murine zymogen pro-MMP-9: a weak signal (49 RU) to the mouse pro-MMP-9 was detected, compared to about 1 300 RU with the human proenzyme.

T1 sequence (P14780 107-707, one chain of several): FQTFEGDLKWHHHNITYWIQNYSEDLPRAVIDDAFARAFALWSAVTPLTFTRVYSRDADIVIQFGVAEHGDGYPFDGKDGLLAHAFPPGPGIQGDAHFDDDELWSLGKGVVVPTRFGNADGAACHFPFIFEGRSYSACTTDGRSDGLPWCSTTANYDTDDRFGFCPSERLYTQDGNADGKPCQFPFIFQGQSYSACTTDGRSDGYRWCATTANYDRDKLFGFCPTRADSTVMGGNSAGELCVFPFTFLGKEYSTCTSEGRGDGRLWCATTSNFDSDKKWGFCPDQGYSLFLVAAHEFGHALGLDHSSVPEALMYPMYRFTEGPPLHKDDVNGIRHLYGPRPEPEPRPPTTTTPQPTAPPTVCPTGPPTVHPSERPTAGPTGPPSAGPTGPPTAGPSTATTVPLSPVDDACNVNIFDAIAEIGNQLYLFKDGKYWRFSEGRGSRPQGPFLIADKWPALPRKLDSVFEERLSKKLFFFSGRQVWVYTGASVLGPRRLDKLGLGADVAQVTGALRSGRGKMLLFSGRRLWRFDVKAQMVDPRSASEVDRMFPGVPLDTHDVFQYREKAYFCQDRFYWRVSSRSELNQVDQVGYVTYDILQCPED

B1: F3 (ssRNA)
RNA: GGUUACCAGCCUUCACUGCCCUGCCCUCACCCGUUAGCCUGAGCGCCCCGCACCACGGUCGGUCACAC
modifications: 2'-F pyrimidines, 2'-OH purines
For B1, the Kd (hMMP-9 (gelatinase B) [1]) was 8.1 nM, the binding result (hMMP-7 [2]) was “no binding” and the binding result (pro-hMMP-7) was “no binding”.

UGCCCUGCCCUCACCCGUUAGCCUGAGCGCCCCGCA (XNA, 2'-F pyrimidines, 2'-OMe purines) [F3Bomf]: no binding (hMMP-7 [3]); no binding (hMMP-2 (gelatinase A)).

UGCCAAACGCGUCCCCUUUGCCCGGCCUCCGCCGCA (XNA, 2'-F pyrimidines, 2'-OMe purines) [control scrambled sequence]: no binding (hMMP-9 (gelatinase B) [4]).
